Patent publication US20150355179
Like-named read-outs stand apart in the source and are kept apart here.

Columns and labels:
[1] = molecular target: T1, GST-CDKACTH1 labelled with Cy3 (CDKACTH1-Cy3)
T1 chain: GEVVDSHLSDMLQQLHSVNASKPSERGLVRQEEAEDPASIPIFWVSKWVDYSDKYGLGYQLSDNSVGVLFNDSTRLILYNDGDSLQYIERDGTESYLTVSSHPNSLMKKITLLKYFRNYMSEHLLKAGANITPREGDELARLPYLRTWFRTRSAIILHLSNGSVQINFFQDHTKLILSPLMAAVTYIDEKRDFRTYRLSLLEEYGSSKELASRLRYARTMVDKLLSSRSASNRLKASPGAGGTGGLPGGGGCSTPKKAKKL

[2] = system: GST-CDKACTH1 labelled with Cy3 (CDKACTH1-Cy3); remark: listed apart in the source

B1: Plk3 kinase (protein)
chain: MEPAAGFLSPRPFQRAAAAPAPPAGPGPPPSALRGPELEMLAGLPTSDPGRLITDPRSGRTYLKGRLLGKGGFARCYEATDTETGSAYAVKVIPQSRVAKPHQREKILNEIELHRDLQHRHIVRFSHHFEDADNIYIFLELCSRKSLAHIWKARHTLLEPEVRYYLRQILSGLKYLHQRGILHRDLKLGNFFITENMELKVGDFGLAARLEPPEQRKKTICGTPNYVAPEVLLRQGHGPEADVWSLGCVMYTLLCGSPPFETADLKETYRCIKQVHYTLPASLSLPARQLLAAILRASPRDRPSIDQILRHDFFTKGYTPDRLPISSCVTVPDLTPPNPARSLFAKVTKSLFGRKKKSKNHAQERDEVSGLVSGLMRTSVGHQDARPEAPAASGPAPVSLVETAPEDSSPRGTLASSGDGFEEGLTVATVVESALCALRNCIAFMPPAEQNPAPLAQPEPLVWVSKWVDYSNKFGFGYQLSSRRVAVLFNDGTHMALSANRKTVHYNPTSTKHFSFSVGAVPRALQPQLGILRYFASYMEQHLMKGGDLPSVEEVEVPAPPLLLQWVKTDQALLMLFSDGTVQVNFYGDHTKLILSGWEPLLVTFVARNRSACTYLASHLRQLGCSPDLRQRLRYALRLLRDRSPA
For B1, the “real-time fluorescence kinase assay (Cy3 fluorescence)” value [1] was “Plk1 or Plk3 did not induce any significant changes in the fluorescence of CDKACTH1, in the same range of concentrations”.

B2: recombinant CDK4/Cyclin D (enzyme, part only; not given: Cyclin D partner)
chain: MATSRYEPVAEIGVGAYGTVYKARDPHSGHFVALKSVRVPNGGGGGGGLPISTVREVALLRRLEAFEHPNVVRLMDVCATSRTDREIKVTLVFEHVDQDLRTYLDKAPPPGLPAETIKDLMRQFLRGLDFLHANCIVHRDLKPENILVTSGGTVKLADFGLARIYSYQMALTPVVVTLWYRAPEVLLQSTYATPVDMWSVGCIFAEMFRRKPLFCGNSEADQLGKIFDLIGLPPEDDWPRDVSLPRGAFPPRGPRPVQSVVPEMEESGAQLLLEMLTFNPHKRISAFRALQHSYLHKDEGNPE
For B2, the “real-time fluorescence kinase assay (Cy3 fluorescence)” value [2] was “CDK4/Cyclin D kinase induced changes in CDKACTH1 fluorescence reminiscent of CDK2/Cyclin A”.
